B1: D-type amino acid dehydrogenase: D-type amino acid dehydrogenase derived from N. massiliense, amino acid sequence SEQ ID NO: 2, hexamer (protein)
chain: MSNVYNVAVVGYGNIGKYAVQAIDAAPDMQLAGVVRRASSAAKDTPPELVGRRVVHDIRDLEQVDVAILAAPTRTIPAYARDVLSLGIHTVDSYDIHGELANLRRELDDVSKKNDSVAIISAGWDPGTDSMIRGMLEFMAPGGLTYTNFGPGMSMGHSVAVKAIDGVKDALSLTIPLGTSIHRRMVYVELEAGADFETVKKAILADPYFVNDETHVTQVPNVQQLVNVGHGVSMERRGVSGATHNQLFTFEMRINNPALTSQVLVAAARATFKQQPGAYTMIEVPVIDYLPGDRDDIIRRLV
modifications: hexamer; Numidum massiliense

Key:
[1] = test system: D-type amino acid dehydrogenase derived from N. massiliense; experiment: Kinetic analysis of D-type amino acid dehydrogenase; assay type: biochemical, Numidum massiliense; conditions: meso-diaminopimelic acid as substrate, NADP^+ or NAD^+ as coenzyme; values for meso-diaminopimelic acid determined using NADP^+
Description: The absorbance was measured by an ultraviolet-visible spectrophotometer UV-1800 (available from SHIMADZU). The specific activity of the enzyme was calculated from the concentration of the enzyme used and enzyme dilution rate using the obtained absorbance change and the following equation. […] A turnover number (kcat) as a reaction rate parameter, a Michaelis constant (Km) value, and catalytic efficiency (kcat/Km) were determined with Igor Pro ver. 3.14 (available from WaveMetrics) based on Michaelis-Menten equation after the initial velocities were plotted against different substrates and coenzyme concentrations.

[2] = Thermal stability of D-type amino acid dehydrogenase; assay type: physicochemical; conditions: 60° C., 30 minutes, 10 mM phosphate buffer pH 7.2; relative to treatment at 40° C. as 100%
Description: The D-type amino acid dehydrogenase purified in Example 2 was heat-treated in 10 mM phosphate buffer solution (pH 7.2) under various temperature conditions (40° C., 45° C., 50° C., 55° C., 60° C., 65° C., or 70° C.) for 30 minutes to confirm residual activity after being left to stand for 5 minutes on ice. […] The residual activity after treatment at other temperatures was calculated as a relative activity with treatment at 40° C. as 100%.

[3] = pH stability of D-type amino acid dehydrogenase; assay type: physicochemical; conditions: pH 5.5 to 9.5, 50° C., 30 minutes; relative to pH 5.5 as 100%
Description: The D-type amino acid dehydrogenase purified in Example 2 was subjected to a heat treatment at 50° C., in 100 mM of each buffer solution (pH 4.0, 4.5, 5.0, 5.5, 6.0, 6.5, 7.0, 7.5, 8.0, 8.5, 9.0, 9.5, 10.0, 10.5, 11.0, 11.3, 12.0, 12.3, or 13.0) for 30 minutes to confirm residual activity after being left to stand for 5 minutes on ice. […] The residual activity after treatment at other pH was calculated as a relative activity with treatment at pH 5.5 as 100%.

[4] = Optimum temperature in catalytic reaction; assay type: biochemical; conditions: deamination of meso-diaminopimelic acid, NADP^+, 50-80° C. tested
Description: The measurement results are illustrated in FIG. 6. From the results, it was confirmed that the optimum temperature for activity was about 75° C.

[5] = Activity-staining with D-alanine or L-alanine; assay type: biochemical; conditions: 10 mM D-alanine or L-alanine, 1.25 mM NADP^+, pH 8.0, 50° C., 30 minutes
Description: The activity was evaluated for the D-type amino acid dehydrogenase obtained in Example 2 above. The activity of the enzyme was evaluated by an activity-staining method due to a catalytic reaction of the enzyme. More specifically, an appropriate amount of enzyme solution was subjected to disc gel electrophoresis. […] 2-(4-iodophenyl)-3-(4-nitrophenyl)-5-phenyl-2H-tetrazolium chloride in the reaction solution is reduced to form a […] formazan. A reaction formula is indicated below. In the following reaction formula, the D-type amino acid dehydrogenase is referred to as “meso-DAPDH”.

[6] = Optimum pH in catalytic reaction (deamination of meso-diaminopimelic acid); assay type: biochemical; conditions: deamination of 10 mM meso-diaminopimelic acid, 1.25 mM NADP^+, 50° C.
Description: The optimum pH was evaluated for the D-type amino acid dehydrogenase obtained in Example 2. The activity of the enzyme was measured by determining an increase in absorbance at wavelength of 340 nm of NADPH produced by the catalytic reaction of the enzyme.
The absorbance was measured by an ultraviolet-visible spectrophotometer UV-1800 (available from SHIMADZU). The specific activity of the enzyme was calculated from the concentration of the enzyme used and enzyme dilution rate using the obtained absorbance change and the following equation.

[7] = Coenzyme dependence by activity-staining; assay type: biochemical; conditions: 10 mM meso-diaminopimelic acid, 1.25 mM coenzyme, pH 8.0, 50° C., 30 minutes
Description: The coenzyme dependence was evaluated for the D-type amino acid dehydrogenase obtained in Example 2 above. The coenzyme dependence of the enzyme was evaluated by an activity-staining method due to a catalytic reaction of the enzyme.
More specifically, an appropriate amount of enzyme solution was subjected to disc gel electrophoresis. […] The 2-(4-iodophenyl)-3-(4-nitrophenyl)-5-phenyl-2H-tetrazolium chloride in the reaction solution is reduced to form a […] formazan. A reaction formula is indicated below. In the following reaction formula, the D-type amino acid dehydrogenase is referred to as “meso-DAPDH”.

Row | Molecule | kcat [1] [s⁻¹] | residual activity after heat treatment [2] | residual activity after pH treatment [3] [%] | optimum temperature for activity [4] | D/L selectivity (activity-staining) [5] | optimum pH for activity [6] | coenzyme dependence (activity-staining) [7]
1 | NC(=O)c1ccc[n+]([C@@H]2O[C@H](COP(=O)([O-])OP(=O)(O)OC[C@H]3O[C@@H](n4cnc5c(N)ncnc54)[C@H](O)[C@@H]3O)[C@@H](O)[C@H]2O)c1 [NAD^1] | 8930 | – | – | – | – | – | –
2 | B1 | – | about 76% | ≥ 90 | about 75 °C | selectively acts on the D-amino acid | 10.5 | utilized both NAD^+ and NADP^+ coenzymes
